The nanobody polyreactivity screen of Harvey et al. (2022)

Test: yeast display, Sf9 membrane polyspecificity reagent, FACS + sequencing; frameworks hold sequencing errors
In short: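 Synthetic nanobody libraries on Saccharomyces cerevisiae BJ5465 were galactose-induced for 36–48 hours, stained 1 hour at 4 °C with 10% biotinylated, detergent-solubilized Sf9 membrane reagent and enriched on streptavidin microbeads. FACS then separated cells into low and high (top ~1%) gates by anti-HA (expression) and streptavidin (reagent binding) fluorescence. Genes were colony-PCR amplified, MiSeq 2 × 250 sequenced and CDR-length filtered. A clone's polyreactivity label is that of its gate of origin.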

QVQLEESGGGLVQAGGSLRLSCAASGSIFIYYAMGWYRQAPGKERELVAGINFNGGSTYYADSVKVRFTISRDNAKNTVYLQMNSLKPEDTAVYYCAADELWWTYWDFVTNWYQRDYWGQGTQVTVSS
polyreactivity (PSR sort gate): low polyreactivity

HVQLQESGGGLVQAGGSMRLTCAASGQKSSYYSMGWNRQAPGKEREFVATIAVGGTTNYADSVKGRFTISRDNAKNTVYLQMNSLKPEDTAVCFCAANSTQYTWFDYWGQGTQVPVSS
polyreactivity (PSR sort gate): low polyreactivity

QVQLVDSWGGLVQAGASLRLSCAASGNTYSSYAMGWYRKAPGKERELVASITGRGGSTYYSDSVKGRFTISRDNAKNIVYLQMNSLKPEDTAVYYCTAKRFYITDDPLDYFYWGQCTQVTVSS
polyreactivity (PSR sort gate): high polyreactivity

QDQLVESGGGIVQAGGSLRLSCAASGIIFGFYAMGWYIKAPGKERELVASISYSGGRTYYADSVKGRFTISRDNAKNTFYLQMISLKPEDTAVYYCAARLYWIPPSPSRYDYWGQGTQVTVSS
polyreactivity (PSR sort gate): high polyreactivity

QVQLVESGGGLVQAGGSLRLSCAASGFTFYYYAMGWYRQAPGKERELVASISSRGGSTYYADSVKGRFTISRDNAKNTVYLQMNSLKPEDTAVYYCAARTRRYKFDYWGQGTQVTVSS
polyreactivity (PSR sort gate): high polyreactivity

QVQLVESGGGLVQAGGSLRLSCAASGRTLVRNVMGWYRQAPGKERELVAAISRSGGSTYYADSVKGRFTISRDNAKNTVYLQMNSLKPEDTAVYYCAAATKSNGAPIFDSWGQGTQVTVSS
polyreactivity (PSR sort gate): high polyreactivity

QVQLVESGGGLVQAGGSLRLSFAASGFTFWKNAMGWYRQAPGKERELVATISNGGNTYYADSVKGRFTISRDNAKNTVYLQMNSLKPEDTAVYYCATGYPSDLGREFDYWGQGIQVTVSS
polyreactivity (PSR sort gate): high polyreactivity

QVQLVESGGGLVQAGGSLRLSCAASGSIFDIYAMGWYRQAPGKERELVAAITNGGSTYADSVKGRFTISRDNAKNTVYLQMNSLKPEDTAVYYCAAYVDQYEYNYWGQGTQVTVSS
polyreactivity (PSR sort gate): low polyreactivity

QLQLVESGGALVQAGGSLRFSCAASARTYGKNAMGWYRQAPGKERELDAAITWSGSSTYYADSVKGRFTISRHNAKNTVYLQMNSLKAEDTAVYYCAKEDWQLDYTVTWRKMDSWGQVTQVTVSS
polyreactivity (PSR sort gate): low polyreactivity

QVQLVESGGGLVQAGGSLRLSCAASGRNSIYYALGWYRQAPGTDRELVAAITTTGSTKYADSVKGRFTISRDNAKKTVDLQMNSLKPEDTADYYCAARFSRWWVRYGYWGQATQVTVSS
polyreactivity (PSR sort gate): high polyreactivity

QVQLEESGGGLVQAGGSLRLSCAASGSIFNVNTIGWYRQAPGKEREFVAAISYSGGSTYYADSVKGRFTISRDNAKNTVYLQMNSLKAEDTALYYCNVSPTTSGDGGGYDSWGQGTQVTVSS
polyreactivity (PSR sort gate): low polyreactivity

QVQLVESGGGLVQAGGSLRLSCAASGSTFPQYAMGWDRQAPGKERELVAVITDSGGSTYYADSVKGRFTISRDNAKNTVYLQKNSLKPEDTAVYYCAARRWSPRSGLGYGYWGQGTQVTVSS
polyreactivity (PSR sort gate): high polyreactivity

QVQIVESGGGLVQAGGSLRISCAASGIIFYAYAMGWSRQAPGKEREFVAAINNSGGRTYYADSVKGRFTISRDNAKNTVYLQMNSLKPEDTAVYYCAVYSYYRRTYRREMDYWGQGTQVTVSS
polyreactivity (PSR sort gate): high polyreactivity

QVQLVESGGGLVQAGGSLRLSCAPSGSTFYSNAMGWYRQAPGKERELVASISWSSGSTYYADSVKGRFTISRDNAKNTVYLQMNSLKPEDTAVYYCNKRPVILYDYWGQGTQVTVSS
polyreactivity (PSR sort gate): low polyreactivity

QVQLVESGGGLVQAGGSLRLSCAASGFTFGRYAMGWYRQATGKERELVAAITWSGGSTHYADSVKGRFTISRDNAKNTVYLQMNSLKPEDTAVYYCAVRVIYWSGSQVSVEYYYWGQGTQVTVSS
polyreactivity (PSR sort gate): low polyreactivity

QVQLVESGGGLVQAGGSLRLSCAASGSNLYPYAMGWYRQAPGKERELVAAISRGGSTNYADSVKGRYTIARDNAKNTVYLQMNSLKPDDTAVYYCATAYTRFSQRYEYYVIYWQNDYWGQGTQVTVSS
polyreactivity (PSR sort gate): low polyreactivity

QVQLVESGGGLVQAGGSLRLSCAASGSISSYYAMGWYRQATGKERELVAAISKSGGSTYYADSVKGRFTISRDNAKNTVYLQMNSLKPEDSAVYYCAARDYGWRYYRKYDYWGQGTQVTVSS
polyreactivity (PSR sort gate): high polyreactivity

QVQLVESAGGLVQAGGSLRLSCAASGSIFVRNAMGWYRQAPGKERELVARISSRGGSTYYADSVKGRFTISRDNAKNTVYLQMISLKPEDTAVYYSNRDRTWQTNDYWGQGTQVTVSS
polyreactivity (PSR sort gate): high polyreactivity

QVQLVESGGGLVQAGGSLRLSCAASGGIYDSYAMGWYRQAPGKEGEMVASISWSGGSTYYADSVKGRFTISRDNAKNTVYLQMNSLKPEDTAVYYCAADRAYAGRYWKGYHSALYDYWGEGTQVTVSS
polyreactivity (PSR sort gate): low polyreactivity

QFQLVESGGGSVQAGGSLRLSCAASGSTFDYNMGWYRQAPGKERELVATIRSDGRTNYADSVKGRFTISRDNAKNTVYLQMNSLKPEDTAVYYCAADVYAYVDDFGGYDYWGQGTQVTVSS
polyreactivity (PSR sort gate): low polyreactivity

QVQLVESGGGLVQAGGSLRLSCAASGRTFPYNVMGWYRQAPRKERELVAAITYDGGNTYYADSVKGRFTISRDNAKNTVYLQMNSLKPEDTAVYYCARPLTYYDEFDSWGQGTQVTVSS
polyreactivity (PSR sort gate): low polyreactivity

QVQLVESGGGLVQAGGSLRLTCAASGRIFRYYAMGWYRQAPGKERELVATISRGGSTTYADSVKGRFTISRDNAKNTVYLQMNSLKPEDTAVYYCDARFGSTYDYWGQGTQVTVSS
polyreactivity (PSR sort gate): low polyreactivity

QVQLVESGGGLVQAGGSLRLSCAASGSTFGPYAMGWYRQAPGKEVELVAAITASVGSTYYAESVKGRFTISRDNAKNTVYLQMNSLKPEDTAVYYCNADLSYFFGPYWGLYGLDYWGQGTQVTVSS
polyreactivity (PSR sort gate): low polyreactivity

QVQLVESGGGLVQAGGSLRLSCAASGLTSVSNAMGWYRPAPGKERELVAAISSRGGITYYADSVKGRFTISRDNAKNTVYLQMNSLKPEDTAVYYCAKKTVQRGYYYWGQGTQVTVSS
polyreactivity (PSR sort gate): high polyreactivity

QVQLVESGGGLVQAGGSLRLSCAASGFIFNKYAMGWYRQAPGKERELVATIRRDGSTNYADSVKGRFTISRDNAKNTVYLQMNSLKPEDTAVYYCAVRPYYWSRDYYWGQGTQVTVSS
polyreactivity (PSR sort gate): high polyreactivity

QVQLVESGGGLVQAGGSLRLSCAASGRTIGSYAMGWYRQAPGKERELVAAITSSCGSTYYADSVKGRFTISRDNAKNTVYLQMNSLKPEDTAVYDCAALWGRRGWWGVSWSFSTGFDYWGQGTQVTVSS
polyreactivity (PSR sort gate): high polyreactivity

QVQLVESGGGIDKAGGSLRLSCAPSGGIFIRYAMGWYRQAPGKERELVAGIDSGGGTKYADSVKGRFTISRDNAKNTVYLQMNSLKPEDTAVYYCNGEVSVWPFSYDYWGQGTQVTVSS
polyreactivity (PSR sort gate): low polyreactivity

QVQLVESGGGLVKAGGSLRLSCAASGSTFYSYVMGWYRQAPGKERELFAAISRRGGSTYYADSVKWRFTISSDNAKNTVYLQMNSLKPEDTAVYYCAASAPVAGYKYRYDYWGQGTQVTVSS
polyreactivity (PSR sort gate): high polyreactivity

QVQLVESGGGLVQAGGSLRLSCAASGSTFGKNAMGWYRQAPGKERELVAAITRGSGSTYYADSVKGRFTISRDNAKNTVYLQMNSLKPEDTAVYYCAARRYRLSTPEFNYWGQGTQVTVSS
polyreactivity (PSR sort gate): high polyreactivity

QVQRVESVGGLVQAGGRLRLSCAASGRTFVYYTMGWYRQAPGKERELVAAISWNGDDTYYADSVKGRFTISRDNAKNTVYLQMNSLKPEDTAVYYCAKESYTDYDTYYYWGQGTQVTVSS
polyreactivity (PSR sort gate): low polyreactivity

QVQLVESGGGLVQAGGSLRLSCAASGSILTDNAMRWYRQAPGKERELVAAITSGGSTYYADSVKGRFTISRDNAKNTVYLQMNSLKPEDTAVYYCNADPYTYSYGMYYWGQGTQVTVSS
polyreactivity (PSR sort gate): low polyreactivity

QLQLVDSGGGLVQAGGSLRLSCADSGRTYGAYTMGWYRKAPGKERELVAAINWSGGDTYYADSVKVRFTISRDNAKNTVYLQMNRLKPEDTAVYYCNAEPRYGTYDYWGQGTQVTVSS
polyreactivity (PSR sort gate): low polyreactivity

QVQLVESGGGLVQAGGSLRLSCAASGLIFYRYAMGWYRQAPGKERELVAAISRRGGSTYYADSVKGRFTISRDNAKNTVYLQMNRLKAEETAVYYCAARLPGYYGIGDYWGQGTQVTVSS
polyreactivity (PSR sort gate): high polyreactivity

QVQLVESGGGLVQAGGRLRLSCAASGYTFRRNAMGWYRQAPGKERELVAAITWRGTSTYYADSVKGRFTISRDNAKNTVYLQMNSLKPEDTAVYYCAARFYSGPGGYTMYYWGQGTQVTVSS
polyreactivity (PSR sort gate): high polyreactivity

QDQLVESGGGLVQAGGSLRLSCAASGFIFPIYAMGWYRQAPGKERELVAGISGSGTSTYYADSVKGRFTISRDNAKNTVYFLMNSLKPEDTAVYYCNILWRGAARTRWDRGYWGLGTQVTVSS
polyreactivity (PSR sort gate): high polyreactivity

QVQLVESGGGLVQAGGSLRLSCADSGLIFTAHDMGWYRQAPGKERELVADISKSGSSTYYADSVKGRFTISRDNAKNTVYLQMNSLKPEDTAVYYCNADYLTYFTTFDYWGQGTQVTVSS
polyreactivity (PSR sort gate): low polyreactivity

QVQLVESGGGLVQAGGSLRLSCAASGRTFGKNAMGWYRQAPGKEREFVAAITSRGGSTYYADSVKGRFTISRDNAKNTVYLQMNSLIPEDTAFYYCNREYKRPSQRTEHYYWGQGTQVTVSS
polyreactivity (PSR sort gate): low polyreactivity

QVQLVESGGGLVQAGGSLRLSCAASGRIFKRYVMGWYRQAPGKERELVAAISVRGASTYYADSVKGRFTISRDNAKNTVSLQMNSLKPEDTAVYYCATAGYRLLDYWGQGTQVTVSS
polyreactivity (PSR sort gate): high polyreactivity

QVQLVESGGGLVQAGGSLRLSCAASGFIISPYAMGWYRQAPGKERELVAAISWSGVSTYYADSVKGRFTISRDNAKNTVYLQMNSLKPEDTAVYYCATYRTVYYWGQGTQVTVSS
polyreactivity (PSR sort gate): high polyreactivity

QVQLVESGGGYVQAGGSLRLSCAASGSIFRGYAMGWSRQAPGKEWELVATIDSSAGSTYYADSVKGRYTISRDNAKNTVYLQMNSLKPEDTAVFYCATDPYGYYYSGYDYWGQGTQVTVSW
polyreactivity (PSR sort gate): low polyreactivity

QVQLVESGGGLVQAGCTLRLSCAASGSIAYNAMGWYRQAPGKERELVASIRASGGRTYYADSVKGRFTISRDNAKNSVYLQMNSLKPEDTAVYYCAAYHGSKPLHHKGYDYWGQGTQVSVSS
polyreactivity (PSR sort gate): low polyreactivity

QVQLVESGGGLVQAGGSLRLSCAPSGRIFVYYTMGWYRQAPGKERELVAAITGSGGSTYYADSVKGRFTISRDNAKYTVYLQMNSLKPVDTAVYYCAVYDSYRKFKYWGQGTQVTVSS
polyreactivity (PSR sort gate): high polyreactivity

QVQLVESGGGLVQAGGNLRLSCAASGSIFAWYVMGWYRQPPGKERELVAGIDTSGGSTFYADSVKGRFTISRDNAKNTVYLQMNSLKPEDTAVYYCAADTWYRGPWEFDYWGQGTQVTVSS
polyreactivity (PSR sort gate): low polyreactivity
